Reference: article PMC7073074 (2020)

Experiments:
[1] = biological target: T1, rabbit muscle F-actin (Oryctolagus cuniculus (Rabbit), UniProt P68135); experiment: F-actin co-sedimentation, Coomassie SDS-PAGE (apparent Kd given only as 8.9 µg, CI 5-20 µg); low ionic strength: co-pellets at 50 mM NaCl but not at 100 or 150 mM NaCl; polymerised (F-)actin
[2] = biological target: T1, rabbit muscle F-actin; experiment: F-actin co-sedimentation, Coomassie SDS-PAGE

B1: FLAG-tagged coronin A (protein)
chain: MSKVVRSSKYRHVFAAQPKKEECYQNLKVTKSAWDSNYVAANTRYFGVIWDAAGGGSFAVIPHEASGKTTSVPLFNGHKSAVLDIAFHPFNENLVGSVSEDCNICIWGIPEGGLTDSISTPLQTLSGHKRKVGTISFNPVADNVAVTSSGDFLVKTWDVEQGKNLTTVEGHSDMITSCEWNHNGSQIVTTCKDKKARVFDPRTNSIVNEVVCHQGVKNSRAIFAKDKVITVGFSKTSERELHIYDPRAFTTPLSAQVVDSASGLLMPFYDADNSILYLAGKGDGNIRYYELVDESPYIHFLSEFKSATPQRGLCFLPKRCLNTSECEIARGLKVTPFTVEPISFRVPRKSDIFQDDIYPDTYAGEPSLTAEQWVSGTNAEPKTVSLAGGFVKKASAVEFKPVVQVQEGPKNEKELREEYEKLKIRVAYLESEIVKKDAKIKELTN
B1: binds [1].

B2: FLAG-tagged coronin A lacking the coiled coil (protein)
chain: MSKVVRSSKYRHVFAAQPKKEECYQNLKVTKSAWDSNYVAANTRYFGVIWDAAGGGSFAVIPHEASGKTTSVPLFNGHKSAVLDIAFHPFNENLVGSVSEDCNICIWGIPEGGLTDSISTPLQTLSGHKRKVGTISFNPVADNVAVTSSGDFLVKTWDVEQGKNLTTVEGHSDMITSCEWNHNGSQIVTTCKDKKARVFDPRTNSIVNEVVCHQGVKNSRAIFAKDKVITVGFSKTSERELHIYDPRAFTTPLSAQVVDSASGLLMPFYDADNSILYLAGKGDGNIRYYELVDESPYIHFLSEFKSATPQRGLCFLPKRCLNTSECEIARGLKVTPFTVEPISFRVPRKSDIFQDDIYPDTYAGEPSLTAEQWVSGTNAEPKTVSLAGGFVKKASAVEFKPVVQVQEGPKN
B2: no binding [2].
